Experimental data from the supplement of paper PMC9112550, “Optimization of the antimicrobial peptide Bac7 by deep mutational scanning” (BMC Biology, 2022).

system: Escherichia coli TOP10; experiment: shrunken log2 fold change of peptide-encoding DNA abundance (4.5 h post-induction vs induction); higher = less antimicrobial activity (less host growth inhibition); conditions: time post-induction: 4.5 h; library: site-saturation at positions 5, 18, 19, 20
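Also: peptides expressed intracellularly from a pBAD plasmid library in pooled LB shake-flask culture, induced with 0.3% L-arabinose, DNA abundance read by NGS, three biological replicates, DESeq2 with apeglm shrinkage.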

Row | Sequence | shrunken log2 fold change
1 | RRIRDRPPRLPRPRPRPNVTPRP | -0.282
2 | RRIRDRPPRLPRPRPRPNVYPRP | 0.0576
3 | RRIRDRPPRLPRPRPRPNYGPRP | -0.0075
4 | RRIRDRPPRLPRPRPRPPAWPRP | 0.811
5 | RRIRDRPPRLPRPRPRPPDCPRP | 0.077
6 | RRIRDRPPRLPRPRPRPPDTPRP | 0.662
7 | RRIRDRPPRLPRPRPRPPEYPRP | -0.0893
8 | RRIRDRPPRLPRPRPRPPFFPRP | 0.174
9 | RRIRDRPPRLPRPRPRPPFPPRP | 0.206
10 | RRIRDRPPRLPRPRPRPPHCPRP | 0.0674
11 | RRIRDRPPRLPRPRPRPPIRPRP | 0.173
12 | RRIRDRPPRLPRPRPRPPISPRP | 0.024
13 | RRIRDRPPRLPRPRPRPPKGPRP | 0.644
14 | RRIRDRPPRLPRPRPRPPMDPRP | 0.28
15 | RRIRDRPPRLPRPRPRPPNFPRP | 0.0198
16 | RRIRDRPPRLPRPRPRPPPGPRP | 0.774
17 | RRIRDRPPRLPRPRPRPPQKPRP | -0.0517
18 | RRIRDRPPRLPRPRPRPPQWPRP | 0.568
19 | RRIRDRPPRLPRPRPRPPSFPRP | 0.155
20 | RRIRDRPPRLPRPRPRPPTLPRP | -0.0573
21 | RRIRDRPPRLPRPRPRPPVWPRP | 1.04
22 | RRIRDRPPRLPRPRPRPPWIPRP | -0.29
23 | RRIRDRPPRLPRPRPRPPWWPRP | 0.461
24 | RRIRDRPPRLPRPRPRPQAMPRP | 0.133
25 | RRIRDRPPRLPRPRPRPQCCPRP | 0.0263

Row | Sequence | shrunken log2 fold change
26 | RRIRDRPPRLPRPRPRPQCNPRP | -0.0196
27 | RRIRDRPPRLPRPRPRPQDCPRP | -0.00195
28 | RRIRDRPPRLPRPRPRPQDQPRP | -0.144
29 | RRIRDRPPRLPRPRPRPQFGPRP | -0.36
30 | RRIRDRPPRLPRPRPRPQFSPRP | 0.0361
31 | RRIRDRPPRLPRPRPRPQGCPRP | 0.0122
32 | RRIRDRPPRLPRPRPRPQHMPRP | -0.11
33 | RRIRDRPPRLPRPRPRPQIVPRP | -0.00245
34 | RRIRDRPPRLPRPRPRPQIYPRP | -0.114
35 | RRIRDRPPRLPRPRPRPQKMPRP | -0.0885
36 | RRIRDRPPRLPRPRPRPQLAPRP | 0.505
37 | RRIRDRPPRLPRPRPRPQLQPRP | -0.16
38 | RRIRDRPPRLPRPRPRPQMIPRP | -0.197
39 | RRIRDRPPRLPRPRPRPQMQPRP | 0.135
40 | RRIRDRPPRLPRPRPRPQNLPRP | 0.0232
41 | RRIRDRPPRLPRPRPRPQNNPRP | -0.653
42 | RRIRDRPPRLPRPRPRPQNVPRP | -0.01
43 | RRIRDRPPRLPRPRPRPQNWPRP | -0.00585
44 | RRIRDRPPRLPRPRPRPQQMPRP | -0.0585
45 | RRIRDRPPRLPRPRPRPQRAPRP | 0.0568
46 | RRIRDRPPRLPRPRPRPQSLPRP | -0.0208
47 | RRIRDRPPRLPRPRPRPQSWPRP | -0.0644
48 | RRIRDRPPRLPRPRPRPQTIPRP | -0.164
49 | RRIRDRPPRLPRPRPRPQTTPRP | 0.0462
50 | RRIRDRPPRLPRPRPRPQVNPRP | -0.182

Row | Sequence | shrunken log2 fold change
51 | RRIRDRPPRLPRPRPRPQVWPRP | 0.0447
52 | RRIRDRPPRLPRPRPRPQWAPRP | 0.326
53 | RRIRDRPPRLPRPRPRPQWMPRP | -0.176
54 | RRIRDRPPRLPRPRPRPQYNPRP | -0.446
55 | RRIRDRPPRLPRPRPRPQYPPRP | -0.219
56 | RRIRDRPPRLPRPRPRPRARPRP | 0.601
57 | RRIRDRPPRLPRPRPRPRATPRP | 0.614
58 | RRIRDRPPRLPRPRPRPRCMPRP | -0.158
59 | RRIRDRPPRLPRPRPRPRCWPRP | 0.923
60 | RRIRDRPPRLPRPRPRPRDCPRP | 0.0952
61 | RRIRDRPPRLPRPRPRPRDDPRP | -0.0224
62 | RRIRDRPPRLPRPRPRPRDGPRP | 0.81
63 | RRIRDRPPRLPRPRPRPRDPPRP | 2.7
64 | RRIRDRPPRLPRPRPRPRILPRP | -0.116
65 | RRIRDRPPRLPRPRPRPRKMPRP | 0.154
66 | RRIRDRPPRLPRPRPRPRMFPRP | -0.0535
67 | RRIRDRPPRLPRPRPRPRMWPRP | 0.0802
68 | RRIRDRPPRLPRPRPRPRNGPRP | 0.0517
69 | RRIRDRPPRLPRPRPRPRNIPRP | -0.0463
70 | RRIRDRPPRLPRPRPRPRNNPRP | -0.196
71 | RRIRDRPPRLPRPRPRPRQEPRP | 0.0935
72 | RRIRDRPPRLPRPRPRPRQNPRP | 0.00972
73 | RRIRDRPPRLPRPRPRPRQQPRP | 0.388
74 | RRIRDRPPRLPRPRPRPRRKPRP | 0.233
75 | RRIRDRPPRLPRPRPRPRSHPRP | -0.0765
